Target: T1, Biotinylated human ICOS protein (human, UniProt Q9Y6W8 21-140, limits assumed, biotinylated (sites not given))
T1 construct: Captured on the NLC chip in the avidity SPR
T1 sequence: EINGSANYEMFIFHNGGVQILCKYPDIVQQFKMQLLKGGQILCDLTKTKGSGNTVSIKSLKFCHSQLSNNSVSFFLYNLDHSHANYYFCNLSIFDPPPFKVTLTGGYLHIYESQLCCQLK
Assay: SPR ProteOn avidity format, biotinylated human ICOS on NLC chip, antibody analyte; apparent KD from equilibrium, 25 C
Procedure: Biotinylated human ICOS protein diluted at 7.5 μg/mL in running buffer (1× HBS-EP+ Buffer Technova, cat. No. H8022) was captured on a NLC sensor chip (Bio-Rad, cat No 1765021). The surface was then blocked using biocytin (Sigma Aldrich, cat No B1758) at 1 mg/mL.
The assay was carried out at 25° C.
The buffer injection (i.e. 0 nM) was used to double reference the sensorgrams. The analysis was carried out using the equilibrium model inherent to the ProteOn's analysis software for each mAb² construct.

Kd: 57.1 nM
B1: STIM001 (antibody, human IgG1, kappa)
heavy: not shown
light: DIVMTQSPLSLPVTPGEPASISCRSSQSLLHSNEYNYLDWYLQKPGQSPQLLIFLGSNRASGVPDRFSGSGSGTDFTLKITRVEAEDVGIYYCMQSLQTPLTFGGGTKVEIKRTVAAPSVFIFPPSDEQLKSGTASVVCLLNNFYPREAKVQWKVDNALQSGNSQESVTEQDSKDSTYSLSSTLTLSKADYEKHKVYACEVTHQGLSSPVTKSFNRGEC
notes: Anti-ICOS monospecific antibody, tested as human IgG1; also called STIM001 monoclonal IgG1 antibody
